From patent US20250152742A1, “COMPOSITIONS AND METHODS FOR NEUROLOGICAL DISEASES” (Trames Bio, Inc., priority 2022, published 2025)
Where a chain is given by its changes, count along the chain named. Numbers in names are those of the source.

Tested on: engineered chimeric receptor SEQ ID NO: 33 and its mutants (human α7-nAChR ligand binding domain / human GlyRα1 ion pore domain) in Lenti-X 293T cells
Assay: YFP fluorescence quenching anion reporter plate reader assay (percent quench, EC50)
Format: cell-based
Conditions: for YFP fluorescence quenching using CNL001 (percent quench): receptor named in row; for YFP fluorescence quenching using Facinicline, 30 nM fac: ligand Facinicline 30 nM; for YFP fluorescence quenching using Facinicline, 300 nM fac: ligand Facinicline 300 nM; for YFP fluorescence quenching using Facinicline, 10 uM fac: ligand Facinicline 10 uM; for YFP fluorescence quenching using Facinicline, 30 uM fac: ligand Facinicline 30 uM; for YFP fluorescence quenching using TC-6987, 1 uM tc6987: ligand TC-6987 1 uM; for YFP fluorescence quenching using TC-6987, 10 uM tc6987: ligand TC-6987 10 uM; for YFP fluorescence quenching using TC-6987, 500 uM tc6987: ligand TC-6987 500 uM; for YFP fluorescence quenching using Varenicline, 3 nM var: ligand Varenicline 3 nM; for YFP fluorescence quenching using Varenicline, 30 nM var: ligand Varenicline 30 nM; for YFP fluorescence quenching using Varenicline, 300 nM var: ligand Varenicline 300 nM; for YFP fluorescence quenching using Varenicline, 500 nM var: ligand Varenicline 500 nM; for YFP fluorescence quenching using Varenicline, 1 uM var: ligand Varenicline 1 uM
Procedure, shortened: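 Percent quench compares mean YFP signal over the final 10 s with the 15 s baseline before ligand, added in iodide-containing extracellular solution (pH 7.2). Cells were LX293T carrying a YFP anion reporter, transiently transfected with the channel construct; plates were preincubated 30 min at 37 °C.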

[1] = 1 nM CNL001, first column so headed
[2] = 1 nM CNL001, second column so headed
[3] = 1 nM brd (TC-5619/Bradanicline)
[4] = 3 nM brd (TC-5619/Bradanicline)
[5] = 10 nM CNL001, first column so headed
[6] = 10 nM CNL001, second column so headed
[7] = 10 nM brd (TC-5619/Bradanicline)
[8] = 30 nM brd (TC-5619/Bradanicline)
[9] = 50 nM CNL001, first column so headed
[10] = 50 nM CNL001, second column so headed
[11] = 100 nM CNL001, first column so headed
[12] = 100 nM CNL001, second column so headed
[13] = 100 nM brd (TC-5619/Bradanicline)
[14] = 300 nM brd (TC-5619/Bradanicline)
[15] = 1 uM CNL001, first column so headed
[16] = 1 uM CNL001, second column so headed
[17] = 1 uM brd (TC-5619/Bradanicline)

B1: CODA330: engineered receptor: L131F in SEQ ID NO: 33 (protein)
chain: MRCSPGGVWLALAASLLHVSLQGEFQRKLYKELVKNYNPLERPVANDSQPLTVYFSLSLLQIMDVDEKNQVLTTNIWLQMSWTDHYLQWNVSEYPGVKTVRFPDGQIWKPDILLYNSADERFDATFHTNVFVNSSGHCQYLPPGIFKSSCPMDLKNFPMDVQTCKLKFGSWSYGGWSLDLQMQEADISGYIPNGEWDLVGIPGKRSERFYECCKEPYPDVTFTVTMRRRMGYYLIQMYIPSLLIVILSWISFWINMDAAPARVGLGITTVLTMTTQSSGSRASLPKVSYVKAIDIWMAVCLLFVFSALLEYAAVNFVSRQHKELLRFRRKRRHHKSPMLNLFQEDEAGEGRFNFSAYGMGPACLQAKDGISVKGANNSNTTNPPPAPSKSPEEMRKLFIQRAKKIDKISRIGFPMAFLIFNMFYWIIYKIVRREDVHNQ
modifications: synthetic sequence of chimeric LGIC
YFP fluorescence quenching using CNL001 (percent quench) [1]: 76.289% | YFP fluorescence quenching using CNL001 (percent quench) [2]: 78.896% | YFP fluorescence quenching using TC-5619/Bradanicline (percent quench) [3]: −12.4% | YFP fluorescence quenching using TC-5619/Bradanicline (percent quench) [4]: 25.12% | YFP fluorescence quenching using CNL001 (percent quench) [5]: 79.339% | YFP fluorescence quenching using CNL001 (percent quench) [6]: 80.245% | YFP fluorescence quenching using TC-5619/Bradanicline (percent quench) [7]: 72.19% | YFP fluorescence quenching using TC-6683 (percent quench) (30 nM TC-6683): −22.26% | YFP fluorescence quenching using TC-5619/Bradanicline (percent quench) [8]: 76.35% | YFP fluorescence quenching using CNL001 (percent quench) [9]: 80.831% | YFP fluorescence quenching using CNL001 (percent quench) [10]: 80.605% | YFP fluorescence quenching using ABT-126 (percent quench) (50 nM abt (ABT-126)): −16.22% | YFP fluorescence quenching using CNL001 (percent quench) [11]: 81% | YFP fluorescence quenching using CNL001 (percent quench) [12]: 80.663% | YFP fluorescence quenching (percent quench) (100 nM CNL002): −3.76% | YFP fluorescence quenching using ABT-126 (percent quench) (100 nM abt (ABT-126)): −11.89% | YFP fluorescence quenching using AZD-0328 (percent quench) (100 nM azd0328): 27.56% | YFP fluorescence quenching using TC-5619/Bradanicline (percent quench) [13]: 78.94% | YFP fluorescence quenching using TC-6683 (percent quench) (300 nM TC-6683): −18.89% | YFP fluorescence quenching using ABT-126 (percent quench) (300 nM abt (ABT-126)): 39.23% | YFP fluorescence quenching using AZD-0328 (percent quench) (300 nM azd0328): 73.35% | YFP fluorescence quenching using TC-5619/Bradanicline (percent quench) [14]: 77.06% | YFP fluorescence quenching using CNL001 (percent quench) [15]: 81.293% | YFP fluorescence quenching using CNL001 (percent quench) [16]: 81.428% | YFP fluorescence quenching (percent quench) (1 uM CNL002): 68.51% | YFP fluorescence quenching using ABT-126 (percent quench) (1 uM abt (ABT-126)): 66.5% | YFP fluorescence quenching using TC-5619/Bradanicline (percent quench) [17]: 78.61% | YFP fluorescence quenching using TC-6683 (percent quench) (3 uM TC-6683): −9.45% | YFP fluorescence quenching (percent quench) (10 uM ach (acetylcholine)): 11.07% | YFP fluorescence quenching (percent quench) (30 uM CNL002): 77.77% | YFP fluorescence quenching using TC-6683 (percent quench) (30 uM TC-6683): −9.23% | YFP fluorescence quenching using AZD-0328 (percent quench) (30 uM azd0328): 77.14% | YFP fluorescence quenching using TC-6683 (percent quench) (100 uM TC-6683): −10.75% | YFP fluorescence quenching (percent quench) (100 uM ach (acetylcholine)): 43.34% | YFP fluorescence quenching (percent quench) (1 mM ach (acetylcholine)): 77.52% | YFP fluorescence quenching (percent quench) (3 mM ach (acetylcholine)): 74.89% | YFP fluorescence quenching using Facinicline, 30 nM fac: 2.9 | YFP fluorescence quenching using Facinicline, 300 nM fac: 74.96 | YFP fluorescence quenching using Facinicline, 10 uM fac: 81.97 | YFP fluorescence quenching using Facinicline, 30 uM fac: 78.31 | YFP fluorescence quenching using TC-6987, 1 uM tc6987: 53.37 | YFP fluorescence quenching using TC-6987, 10 uM tc6987: 74.23 | YFP fluorescence quenching using TC-6987, 500 uM tc6987: 72.25 | YFP fluorescence quenching using Varenicline, 3 nM var (first column): −3.016 | YFP fluorescence quenching using Varenicline, 3 nM var (second column): −1.452 | YFP fluorescence quenching using Varenicline, 30 nM var (first column): −0.193 | YFP fluorescence quenching using Varenicline, 30 nM var (second column): −1.853 | YFP fluorescence quenching using Varenicline, 300 nM var (first column): 6.915 | YFP fluorescence quenching using Varenicline, 300 nM var (second column): 6.513 | YFP fluorescence quenching using Varenicline, 500 nM var (first column): 27.593 | YFP fluorescence quenching using Varenicline, 500 nM var (second column): 29.863 | YFP fluorescence quenching using Varenicline, 1 uM var (first column): 67.499 | YFP fluorescence quenching using Varenicline, 1 uM var (second column): 65.57

B2: CODA333: engineered receptor: L131S in SEQ ID NO: 33 (protein)
chain: B1 chain with F131S
modifications: synthetic sequence of chimeric LGIC
YFP fluorescence quenching using CNL001 (percent quench) [1]: 76.165% | YFP fluorescence quenching using CNL001 (percent quench) [2]: 78.463% | YFP fluorescence quenching using TC-5619/Bradanicline (percent quench) [3]: −0.85% | YFP fluorescence quenching using TC-5619/Bradanicline (percent quench) [4]: −2.05% | YFP fluorescence quenching using CNL001 (percent quench) [5]: 79.349% | YFP fluorescence quenching using CNL001 (percent quench) [6]: 78.238% | YFP fluorescence quenching using TC-5619/Bradanicline (percent quench) [7]: −2.8% | YFP fluorescence quenching using TC-6683 (percent quench) (30 nM TC-6683): −23.88% | YFP fluorescence quenching using TC-5619/Bradanicline (percent quench) [8]: −2.07% | YFP fluorescence quenching using CNL001 (percent quench) [9]: 80.221% | YFP fluorescence quenching using CNL001 (percent quench) [10]: 81.789% | YFP fluorescence quenching using ABT-126 (percent quench) (50 nM abt (ABT-126)): −20.99% | YFP fluorescence quenching using CNL001 (percent quench) [11]: 81.855% | YFP fluorescence quenching using CNL001 (percent quench) [12]: 80.766% | YFP fluorescence quenching (percent quench) (100 nM CNL002): −15.44% | YFP fluorescence quenching using ABT-126 (percent quench) (100 nM abt (ABT-126)): −16.21% | YFP fluorescence quenching using AZD-0328 (percent quench) (100 nM azd0328): 38.49% | YFP fluorescence quenching using TC-5619/Bradanicline (percent quench) [13]: 30.34% | YFP fluorescence quenching using TC-6683 (percent quench) (300 nM TC-6683): −21.46% | YFP fluorescence quenching using ABT-126 (percent quench) (300 nM abt (ABT-126)): −13.34% | YFP fluorescence quenching using AZD-0328 (percent quench) (300 nM azd0328): 67.13% | YFP fluorescence quenching using TC-5619/Bradanicline (percent quench) [14]: 50.56% | YFP fluorescence quenching using CNL001 (percent quench) [15]: 81.707% | YFP fluorescence quenching using CNL001 (percent quench) [16]: 82.665% | YFP fluorescence quenching (percent quench) (1 uM CNL002): 15.21% | YFP fluorescence quenching using ABT-126 (percent quench) (1 uM abt (ABT-126)): 4.96% | YFP fluorescence quenching using TC-5619/Bradanicline (percent quench) [17]: 72.42% | YFP fluorescence quenching using TC-6683 (percent quench) (3 uM TC-6683): −21.07% | YFP fluorescence quenching (percent quench) (10 uM ach (acetylcholine)): −10.11% | YFP fluorescence quenching using TC-6683 (percent quench) (30 uM TC-6683): −16.15% | YFP fluorescence quenching using AZD-0328 (percent quench) (30 uM azd0328): 80.61% | YFP fluorescence quenching using TC-6683 (percent quench) (100 uM TC-6683): −18.96% | YFP fluorescence quenching (percent quench) (100 uM ach (acetylcholine)): −10.05% | YFP fluorescence quenching (percent quench) (1 mM ach (acetylcholine)): 32.11% | YFP fluorescence quenching (percent quench) (3 mM ach (acetylcholine)): 57.37% | YFP fluorescence quenching using Facinicline, 30 nM fac: 6.27 | YFP fluorescence quenching using Facinicline, 300 nM fac: 69.8 | YFP fluorescence quenching using Facinicline, 10 uM fac: 80.07 | YFP fluorescence quenching using Facinicline, 30 uM fac: 81.35 | YFP fluorescence quenching using TC-6987, 1 uM tc6987: −3.87 | YFP fluorescence quenching using TC-6987, 3 uM tc6987 (ligand TC-6987 3 uM): −20.2 | YFP fluorescence quenching using TC-6987, 5 uM tc6987 (ligand TC-6987 5 uM): −15.25 | YFP fluorescence quenching using TC-6987, 10 uM tc6987: 4.92 | YFP fluorescence quenching using TC-6987, 30 uM tc6987 (ligand TC-6987 30 uM): 14.75 | YFP fluorescence quenching using TC-6987, 50 uM tc6987 (ligand TC-6987 50 uM): 21.33 | YFP fluorescence quenching using TC-6987, 100 uM tc6987 (ligand TC-6987 100 uM): 29.7 | YFP fluorescence quenching using TC-6987, 300 uM tc6987 (ligand TC-6987 300 uM): 20.79 | YFP fluorescence quenching using TC-6987, 500 uM tc6987: 44.37 | YFP fluorescence quenching using Varenicline, 3 nM var (first column): −4.782 | YFP fluorescence quenching using Varenicline, 3 nM var (second column): 1.048 | YFP fluorescence quenching using Varenicline, 30 nM var (first column): 2.084 | YFP fluorescence quenching using Varenicline, 30 nM var (second column): 5.022 | YFP fluorescence quenching using Varenicline, 300 nM var (first column): 12.162 | YFP fluorescence quenching using Varenicline, 300 nM var (second column): 12.979 | YFP fluorescence quenching using Varenicline, 500 nM var (first column): 29.238 | YFP fluorescence quenching using Varenicline, 500 nM var (second column): 25.614 | YFP fluorescence quenching using Varenicline, 1 uM var (first column): 43.863 | YFP fluorescence quenching using Varenicline, 1 uM var (second column): 39.346
